Test results reported in patent publication JP2014141434A (dated 2014).

Target: T1, N末端FLAG−tag付加型ヒトROBO4細胞外領域ドメイン欠損体 hROBO4−210 (human, UniProt Q8WZ75 210-1007)
T1 construct: On HEK293 cells; also called pCI−FLAG−hROBO4−210; pCI−hROBO4−210
T1 sequence: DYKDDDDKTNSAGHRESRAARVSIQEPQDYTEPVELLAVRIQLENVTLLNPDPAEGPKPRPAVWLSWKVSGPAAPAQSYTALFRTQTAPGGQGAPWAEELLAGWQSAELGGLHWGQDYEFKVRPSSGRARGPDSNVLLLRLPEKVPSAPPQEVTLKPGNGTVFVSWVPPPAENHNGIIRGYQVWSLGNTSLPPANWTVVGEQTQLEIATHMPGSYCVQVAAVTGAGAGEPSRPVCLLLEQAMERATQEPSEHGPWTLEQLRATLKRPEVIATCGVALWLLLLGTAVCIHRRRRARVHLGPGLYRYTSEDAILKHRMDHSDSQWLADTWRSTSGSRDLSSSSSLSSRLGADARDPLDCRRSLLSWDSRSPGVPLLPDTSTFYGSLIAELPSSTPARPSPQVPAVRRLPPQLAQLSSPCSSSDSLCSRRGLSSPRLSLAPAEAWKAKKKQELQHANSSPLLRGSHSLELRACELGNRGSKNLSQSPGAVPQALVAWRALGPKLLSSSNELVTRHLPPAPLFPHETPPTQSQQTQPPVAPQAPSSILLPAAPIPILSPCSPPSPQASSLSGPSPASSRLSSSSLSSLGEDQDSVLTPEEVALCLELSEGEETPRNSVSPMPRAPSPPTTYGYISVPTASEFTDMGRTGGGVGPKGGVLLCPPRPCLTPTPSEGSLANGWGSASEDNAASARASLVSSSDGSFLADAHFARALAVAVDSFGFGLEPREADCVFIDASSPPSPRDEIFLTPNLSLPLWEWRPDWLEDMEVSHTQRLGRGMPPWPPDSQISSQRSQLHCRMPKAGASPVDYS
Assay: flow cytometry, transfected HEK293 cells

B1: 抗ROBO4マウスモノクローナル抗体 MAb1 (antibody, V domains shown)
VH: EVQLVESGGGLVKPGGSLKLSCAASGFTFSTYAMSWVRQTPEKRLEWVATISNGGTYTYYPDSVKGRFTISRDNAENTLYLQMSSLRSEDTAMYFCARLIYYDYLDYWGHGTTLTVSS
VL: DAVMTQTPLSLPVSLGDQASISCRSSQSLENSNGNTYLNWYFQKPGQSPQLLIYRVSNRFSGVLDRFSGSGSGTDFTLKISRVEAEDFGVYFCLQVTHVPWTFGGGTKLEIKR
notes: Mouse IgG1 (gamma 1) / kappa from a hybridoma; The constant regions are not in the listing; also called MAb1
  binding result: no binding (tested: 10 μg/mL)
